Source: PMC8257933

Experiments:
[1] = molecular target: NTCP-V5-His G60LXXXA64L/G233LXXXG237L (TMD2/7) double mutant; experiment: co-IP (IP anti-FLAG agarose, western blot anti-V5, ImageJ band quantification); conditions: HEK293 cells co-transfected with NTCP-FLAG and NTCP-V5-His; n = 3 independent experiments; parent: est. 100; read off a plot
[2] = molecular target: NTCP-V5-His G233LXXXG237L (TMD7) mutant; experiment: as above; conditions: HEK293 cells co-transfected with NTCP-FLAG and NTCP-V5-His; n = 3 independent experiments; parent: est. 100; read off a plot

For “NTCP wild type, NTCP-FLAG and NTCP-V5-His expressed in HEK293 cells (from UniProt Q14973) binder (NTCP-FLAG): G60L; A64L; G233L; G237L; target (NTCP-V5): G60L; A64L; G233L; G237L”, the percent of parent [1] was 130 % of control.
For “NTCP wild type, NTCP-FLAG and NTCP-V5-His expressed in HEK293 cells (from UniProt Q14973) binder (NTCP-FLAG): G60L; A64L; target (NTCP-V5): G233L; G237L”, the percent of parent [2] was 120 % of control.
